Assay results: publication PMC9482650, “Quantitative fragmentomics allow affinity mapping of interactomes” (Nature Communications, 2022)
Blank lines part the entries; values can stand above or below the binder they belong to.

Legend:
Assay in all cases: holdup assay
Set-up in all cases: key: below the threshold = too weak to quantify, mostly under pKd 3.1 to 4
Details in all cases: plain residues with an end cap or a label only (N-terminal biotin on a linker: ttds)
[1] = target: T1, PDZD2_2, O15018
T1 sequence (O15018 329-429, limits assumed, looked up): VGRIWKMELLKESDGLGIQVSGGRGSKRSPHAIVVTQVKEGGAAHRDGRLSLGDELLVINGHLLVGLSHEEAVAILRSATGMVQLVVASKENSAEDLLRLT

[2] = target: SCRIB_3, Q14160
SCRIB_3, Q14160, sequence (Q14160 999-1103): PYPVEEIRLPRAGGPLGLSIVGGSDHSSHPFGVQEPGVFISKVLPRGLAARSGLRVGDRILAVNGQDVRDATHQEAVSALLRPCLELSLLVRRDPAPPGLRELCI

[3] = target: DLG1_1, Q12959
[4] = target: HTRA1, Q92743
HTRA1, Q92743, sequence (Q92743 360-477): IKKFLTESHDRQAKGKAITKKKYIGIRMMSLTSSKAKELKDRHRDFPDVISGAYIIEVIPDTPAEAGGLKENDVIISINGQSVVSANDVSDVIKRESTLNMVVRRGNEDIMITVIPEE

[5] = target: TJP1_2, Q07157
TJP1_2, Q07157, sequence (Q07157 181-274): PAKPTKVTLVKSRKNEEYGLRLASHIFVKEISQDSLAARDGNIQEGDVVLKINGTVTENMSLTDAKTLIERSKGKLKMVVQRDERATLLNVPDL

[6] = target: T2, DFNB31_2, Q9P202
T2 sequence (Q9P202 274-371, limits assumed, looked up): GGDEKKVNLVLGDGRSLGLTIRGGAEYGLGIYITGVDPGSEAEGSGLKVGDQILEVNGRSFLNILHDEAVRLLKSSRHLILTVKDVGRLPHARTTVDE

[7] = target: T3, MPP6, Q9NZW5
T3 sequence (Q9NZW5 125-219, limits assumed, looked up): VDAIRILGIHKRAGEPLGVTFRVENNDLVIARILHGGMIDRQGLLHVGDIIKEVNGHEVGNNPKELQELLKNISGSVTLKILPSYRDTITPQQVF

[8] = target: GRIP2_6, Q9C0E4
GRIP2_6, Q9C0E4, sequence (Q9C0E4 648-740): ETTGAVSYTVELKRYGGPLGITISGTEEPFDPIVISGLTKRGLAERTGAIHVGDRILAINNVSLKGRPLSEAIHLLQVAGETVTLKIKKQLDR

[9] = target: GRIP2_3, Q9C0E4
GRIP2_3, Q9C0E4, sequence (Q9C0E4 238-339): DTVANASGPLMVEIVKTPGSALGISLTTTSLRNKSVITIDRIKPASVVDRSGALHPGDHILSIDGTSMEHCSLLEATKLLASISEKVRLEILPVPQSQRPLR

[10] = target: T4, DVL3, Q92997
T4 sequence (Q92997 244-331, limits assumed, looked up): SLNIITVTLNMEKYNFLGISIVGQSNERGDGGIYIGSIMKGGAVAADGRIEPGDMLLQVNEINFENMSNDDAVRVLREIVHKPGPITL

[11] = target: IL16_3, Q14005
IL16_3, Q14005, sequence (Q14005 1107-1207): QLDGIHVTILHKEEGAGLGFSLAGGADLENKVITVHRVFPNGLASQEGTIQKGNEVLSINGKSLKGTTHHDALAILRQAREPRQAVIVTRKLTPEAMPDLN

[12] = target: T5, LNX2_3, Q8N448
T5 sequence (Q8N448 463-564, limits assumed, looked up): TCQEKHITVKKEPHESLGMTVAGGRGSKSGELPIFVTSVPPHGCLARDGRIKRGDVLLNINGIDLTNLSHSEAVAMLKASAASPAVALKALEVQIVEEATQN

[13] = target: DLG5_1, Q8TDM6
DLG5_1, Q8TDM6, sequence (Q8TDM6 617-713): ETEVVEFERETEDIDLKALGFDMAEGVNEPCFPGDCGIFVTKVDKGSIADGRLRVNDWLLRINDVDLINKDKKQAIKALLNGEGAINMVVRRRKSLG

[14] = target: NHERF4_1, Q86UT5-2
NHERF4_1, Q86UT5-2, sequence (Q86UT5 other isoform, or with tags, fused parts or gaps): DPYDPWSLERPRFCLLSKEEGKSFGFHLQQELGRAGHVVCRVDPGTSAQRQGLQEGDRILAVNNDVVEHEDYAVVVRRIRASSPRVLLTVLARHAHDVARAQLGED

[15] = target: IL16_4, Q14005
IL16_4, Q14005, sequence (Q14005 1229-1329): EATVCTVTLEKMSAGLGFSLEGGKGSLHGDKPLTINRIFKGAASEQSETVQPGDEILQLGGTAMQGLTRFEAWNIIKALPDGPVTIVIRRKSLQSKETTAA

[16] = target: T6, SNTB1, Q13884
T6 sequence (Q13884 107-205, limits assumed, looked up): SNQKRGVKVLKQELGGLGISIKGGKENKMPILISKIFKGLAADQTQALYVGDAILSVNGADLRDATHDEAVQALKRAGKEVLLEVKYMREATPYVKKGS

[17] = target: T7, MPDZ_10, O75970
T7 sequence (O75970 1624-1722, limits assumed, looked up): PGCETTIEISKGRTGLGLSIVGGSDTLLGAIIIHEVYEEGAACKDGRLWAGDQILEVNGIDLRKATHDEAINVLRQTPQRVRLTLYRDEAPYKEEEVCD

[18] = target: SCRIB_2, Q14160
SCRIB_2, Q14160, sequence (Q14160 857-960): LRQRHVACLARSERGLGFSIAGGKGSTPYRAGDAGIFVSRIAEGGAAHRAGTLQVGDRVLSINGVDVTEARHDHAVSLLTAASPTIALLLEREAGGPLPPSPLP

[19] = target: T8, RAPGEF6, Q8TEU7
T8 sequence (Q8TEU7 525-625, limits assumed, looked up): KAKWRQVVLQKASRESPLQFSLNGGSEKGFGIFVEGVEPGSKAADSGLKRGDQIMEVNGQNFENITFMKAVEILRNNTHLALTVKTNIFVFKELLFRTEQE

[20] = target: LIMK2, P53671
LIMK2, P53671, sequence (P53671 143-248): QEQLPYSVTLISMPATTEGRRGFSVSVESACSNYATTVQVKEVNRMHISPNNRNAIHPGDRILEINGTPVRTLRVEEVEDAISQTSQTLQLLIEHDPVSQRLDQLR

[21] = target: TJP2_1, Q9UDY2
TJP2_1, Q9UDY2, sequence (Q9UDY2 24-128): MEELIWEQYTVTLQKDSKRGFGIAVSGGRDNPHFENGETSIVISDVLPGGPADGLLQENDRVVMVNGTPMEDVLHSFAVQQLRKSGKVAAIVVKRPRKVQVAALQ

[22] = target: SNX27, Q96L92
[23] = target: GRASP, Q7Z6J2
GRASP, Q7Z6J2, sequence (Q7Z6J2 96-193): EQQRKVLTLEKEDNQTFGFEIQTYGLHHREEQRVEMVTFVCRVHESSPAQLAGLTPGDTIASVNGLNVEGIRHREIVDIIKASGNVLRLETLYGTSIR

[24] = target: T9, APBA2_1, Q99767
T9 sequence (Q99767 563-664, limits assumed, looked up): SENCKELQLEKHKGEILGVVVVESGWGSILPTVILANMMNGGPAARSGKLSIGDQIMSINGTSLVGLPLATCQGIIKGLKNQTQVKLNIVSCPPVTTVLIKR

[25] = target: T10, ARHGEF11, O15085
T10 sequence (O15085 42-136, limits assumed, looked up): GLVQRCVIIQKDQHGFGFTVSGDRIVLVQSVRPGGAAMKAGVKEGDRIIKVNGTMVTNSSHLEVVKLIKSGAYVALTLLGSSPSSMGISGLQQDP

[26] = target: T11, APBA2_2, Q99767
T11 sequence (Q99767 654-744, limits assumed, looked up): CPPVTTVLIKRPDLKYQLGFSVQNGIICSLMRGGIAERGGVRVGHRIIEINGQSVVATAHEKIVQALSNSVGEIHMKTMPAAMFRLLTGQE

pKd [1]: 3.71
pKd [2]: 3.94
pKd [3]: 3.64
pKd [4]: 4.27
pKd [5]: below the threshold
pKd [6]: 3.62
pKd [7]: below the threshold
pKd [8]: 3.49
pKd [9]: 3.56
pKd [10]: below the threshold
pKd [11]: below the threshold
pKd [12]: below the threshold
pKd [13]: below the threshold
pKd [14]: 3.51
pKd [15]: 3.5
pKd [16]: 4.08
pKd [17]: 3.98
pKd [18]: 3.73
pKd [19]: below the threshold
pKd [20]: below the threshold
pKd [21]: below the threshold
pKd [22]: 4.89
pKd [23]: 4.72
pKd [24]: below the threshold
pKd [25]: 4.33
pKd [26]: below the threshold
B1: PTEN, P60484 (peptide)
chain: DEDQHTQITKV

pKd [1]: below the threshold
pKd [2]: below the threshold
pKd [3]: below the threshold
pKd [4]: below the threshold
pKd [5]: below the threshold
pKd [6]: below the threshold
pKd [7]: below the threshold
pKd [8]: below the threshold
pKd [9]: below the threshold
pKd [10]: below the threshold
pKd [11]: below the threshold
pKd [12]: below the threshold
pKd [13]: below the threshold
pKd [14]: below the threshold
pKd [15]: below the threshold
pKd [16]: 4.2
pKd [17]: below the threshold
pKd [18]: below the threshold
pKd [19]: below the threshold
pKd [20]: below the threshold
pKd [21]: below the threshold
pKd [22]: 5.56
pKd [23]: below the threshold
pKd [24]: below the threshold
pKd [25]: below the threshold
pKd [26]: below the threshold
B2: CFTR, P13569 (peptide)
chain: TEEEVQDTRL

pKd [1]: below the threshold
pKd [2]: 5.6
pKd [3]: 4.74
pKd [4]: below the threshold
pKd [5]: below the threshold
pKd [6]: 4.36
pKd [7]: 3.74
pKd [8]: below the threshold
pKd [9]: below the threshold
pKd [10]: below the threshold
pKd [11]: below the threshold
pKd [12]: below the threshold
pKd [13]: below the threshold
pKd [14]: 4.04
pKd [15]: below the threshold
pKd [16]: 5.42
pKd [17]: below the threshold
pKd [18]: 4.24
pKd [19]: below the threshold
pKd [20]: below the threshold
pKd [21]: below the threshold
pKd [22]: 5.24
pKd [23]: below the threshold
pKd [24]: below the threshold
pKd [25]: 4.53
pKd [26]: below the threshold
B3: SLCO1C1, Q9NYB5 (peptide)
chain: NYWPGKETQL
